Source: IntAct's records for PubMed 25914052

B1: General negative regulator of transcription subunit 4 (Saccharomyces cerevisiae), P34909 (parent)
chain: MMNPHVQENLQAIHNALSNFDTSFLSEDEEDYCPLCIEPMDITDKNFFPCPCGYQICQFCYNNIRQNPELNGRCPACRRKYDDENVRYVTLSPEELKMERAKLARKEKERKHREKERKENEYTNRKHLSGTRVIQKNLVYVVGINPPVPYEEVAPTLKSEKYFGQYGKINKIVVNRKTPHSNNTTSEHYHHHSPGYGVYITFGSKDDAARCIAQVDGTYMDGRLIKAAYGTTKYCSSYLRGLPCPNPNCMFLHEPGEEADSFNKRELHNKQQAQQQSGGTAFTRSGIHNNISTSTAGSNTNLLSENFTGTPSPAAMRAQLHHDSHTNAGTPVLTPAPVPAGSNPWGVTQSATPVTSINLSKNSSSINLPTLNDSLGHHTTPTTENTITSTTTTTNTNATSHSHGSKKKQSLAAEEYKDPYDALGNAVDFLDARLHSLSNYQKRPISIKSNIIDEETYKKYPSLFSWDKIEASKKSDNTLANKLVEILAIKPIDYTASVVQFLQSVNVGVNDNITITDNTKTPTQPIRLQTVSQQIQPPLNVSTPPPGIFGPQHKVPIQQQQMGDTSSRNSSDLLNQLINGRKIIAGN

Variants of: B1
Settings: with not1_yeast CDC39, P25655
Chain of not1_yeast CDC39, P25655 (P25655 whole entry): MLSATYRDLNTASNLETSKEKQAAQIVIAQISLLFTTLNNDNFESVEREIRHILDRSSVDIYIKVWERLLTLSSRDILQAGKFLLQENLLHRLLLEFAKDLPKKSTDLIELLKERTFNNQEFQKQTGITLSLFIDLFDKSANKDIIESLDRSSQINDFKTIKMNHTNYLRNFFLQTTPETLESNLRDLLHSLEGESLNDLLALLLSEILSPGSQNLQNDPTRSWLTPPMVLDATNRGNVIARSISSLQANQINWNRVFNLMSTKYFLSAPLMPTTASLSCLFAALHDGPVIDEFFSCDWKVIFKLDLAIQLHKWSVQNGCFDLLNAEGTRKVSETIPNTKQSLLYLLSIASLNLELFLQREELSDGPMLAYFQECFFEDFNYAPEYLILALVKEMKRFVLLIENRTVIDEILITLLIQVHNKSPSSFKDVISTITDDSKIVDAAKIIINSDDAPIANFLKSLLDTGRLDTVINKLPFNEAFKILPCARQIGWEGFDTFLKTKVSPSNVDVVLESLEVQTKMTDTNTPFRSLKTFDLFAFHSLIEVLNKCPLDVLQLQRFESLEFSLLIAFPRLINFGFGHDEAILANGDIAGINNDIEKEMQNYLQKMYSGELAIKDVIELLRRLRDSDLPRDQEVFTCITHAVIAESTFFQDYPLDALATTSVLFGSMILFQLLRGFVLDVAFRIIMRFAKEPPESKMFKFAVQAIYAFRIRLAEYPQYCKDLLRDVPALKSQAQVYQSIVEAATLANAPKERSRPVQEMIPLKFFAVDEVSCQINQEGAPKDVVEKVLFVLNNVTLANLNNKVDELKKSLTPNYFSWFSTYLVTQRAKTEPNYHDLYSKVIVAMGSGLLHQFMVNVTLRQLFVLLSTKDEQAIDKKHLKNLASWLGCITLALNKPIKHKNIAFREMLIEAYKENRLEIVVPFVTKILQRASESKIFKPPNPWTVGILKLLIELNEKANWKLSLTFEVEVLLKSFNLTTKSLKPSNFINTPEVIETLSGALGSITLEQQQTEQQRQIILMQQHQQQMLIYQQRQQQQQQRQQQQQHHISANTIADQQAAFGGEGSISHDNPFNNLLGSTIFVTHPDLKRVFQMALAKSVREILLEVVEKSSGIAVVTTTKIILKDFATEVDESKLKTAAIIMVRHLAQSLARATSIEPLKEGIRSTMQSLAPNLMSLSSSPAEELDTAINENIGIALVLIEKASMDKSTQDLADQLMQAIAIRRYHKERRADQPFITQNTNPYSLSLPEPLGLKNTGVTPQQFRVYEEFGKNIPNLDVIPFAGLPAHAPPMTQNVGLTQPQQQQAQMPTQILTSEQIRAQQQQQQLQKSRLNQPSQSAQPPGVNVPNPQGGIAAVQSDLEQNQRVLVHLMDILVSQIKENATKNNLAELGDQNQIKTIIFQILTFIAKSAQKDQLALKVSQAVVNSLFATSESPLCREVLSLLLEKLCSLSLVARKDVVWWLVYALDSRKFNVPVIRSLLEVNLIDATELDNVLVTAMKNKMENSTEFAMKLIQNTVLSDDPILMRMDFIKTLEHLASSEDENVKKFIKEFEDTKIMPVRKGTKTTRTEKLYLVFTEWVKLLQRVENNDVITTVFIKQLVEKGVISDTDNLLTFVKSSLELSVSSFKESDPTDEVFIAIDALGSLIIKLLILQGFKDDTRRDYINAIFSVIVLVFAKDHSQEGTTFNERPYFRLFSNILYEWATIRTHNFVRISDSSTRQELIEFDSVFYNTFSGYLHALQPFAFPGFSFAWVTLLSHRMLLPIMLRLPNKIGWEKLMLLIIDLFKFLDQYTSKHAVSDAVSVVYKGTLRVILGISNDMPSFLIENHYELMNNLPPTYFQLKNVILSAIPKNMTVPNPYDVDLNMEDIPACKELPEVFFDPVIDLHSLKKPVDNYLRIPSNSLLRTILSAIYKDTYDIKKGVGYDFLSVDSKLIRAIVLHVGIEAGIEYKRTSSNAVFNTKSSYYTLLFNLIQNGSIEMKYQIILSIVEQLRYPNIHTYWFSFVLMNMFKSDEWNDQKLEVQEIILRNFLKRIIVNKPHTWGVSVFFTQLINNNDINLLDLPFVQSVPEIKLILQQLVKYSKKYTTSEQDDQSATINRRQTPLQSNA

effect of a mutation on the interaction | Variant
disrupting interaction | L463E;F464E
disrupting interaction | F464E;W466E
